Results on 15 sequences are retold here after the supplement of paper PMC12764529.

A short description of series [1]: folding stability dG unfold from chymotrypsin proteolysis; higher = more stable. Summed up: (§1)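 Designed mini-proteins (under 80 residues, no cysteine) in a PA-tagged cDNA display construct were digested with trypsin and chymotrypsin. Each protease was used at 11 concentrations (threefold dilutions) plus a no-protease condition, followed by sequencing. K50 was inferred by Bayesian fitting of sequencing counts, and unfolding free energy was derived against a sequence-predicted unfolded-state K50 and a shared folded-state K50, per protease or combined. Only designs with AlphaFold2 dimer inter-PAE above 15 were kept.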

Series [2] can be described thus: folding stability dG unfold (combined trypsin and chymotrypsin); higher = more stable. Summed up:
as §1

Series [3] can be described thus: folding stability dG unfold from trypsin proteolysis; higher = more stable. Summed up:
as §1

± gives the half width of the 95% confidence interval.

Turning to “SEPLTPEEVEKFAEWIAKELNEEHGKEVKVEVEYHPDDGYFRAEIEIPNGRRIEITFNPEFGQLDIEVEDSA [r9_9_TrROS]”, the “folding stability dG unfold” value turned out to be 2.36 ± 0.062 kcal/mol in series [1], 1.71 ± 0.27 kcal/mol in series [2] and 1.31 ± 0.18 kcal/mol in series [3].

As to “SEPVPVKIEISTSVDSNGNPSVTITVYNEEKVYTNPLNGATILSVDPNKQYIVIENPALGTKLTLSYTLISA [r9_1186_JUSTAS]”, the entries for the “folding stability dG unfold” value in series [1], in series [2] and in series [3] were 2.75 ± 0.048 kcal/mol, 2.49 ± 0.093 kcal/mol and 2.07 ± 0.086 kcal/mol, respectively.

On to “SEVEVTVTVTLTRRLPDGREREVTVTLTLRLEFDPELSEEELESPELRKRLEELRREALERARRLAEELASA [r9_237_TrROS_Hall]”, for which the “folding stability dG unfold” value in series [1] is 6.52 ± 0.22 kcal/mol; in series [2], over 6 kcal/mol; in series [3], 4.64 ± 0.18 kcal/mol.

“SFKLEKTITLPDYVLKIEVTFKPKPDKTVIAPIKVTIYDPVKKKPYTKELTKPFPPEDPLKFVEEALKEIFS [r1_171_TrMRF]”: the “folding stability dG unfold” value in series [1] came out at 0.235 ± 0.42 kcal/mol; in series [2] it was 0.438 ± 0.33 kcal/mol; in series [3], 0.425 ± 0.1 kcal/mol.

Regarding “SFKLPPGQEIKVKIFILFVDPGDGRMYFIKIEYEITIKPDDDGNLDLDIEPTNIEVVGPMPADEAKEFFKSA [r9_423_TrROS]”, the results for the “folding stability dG unfold” value in series [1], in series [2] and in series [3] were 2.54 ± 0.16 kcal/mol, 2.34 ± 0.25 kcal/mol and 2.47 ± 0.086 kcal/mol, respectively.

Turning to “SFSISTETKVVPQDGRLLIEYEFTVPNAPPGDTAALTLSVSHPSGASTSTSQTADPAGTYTAKFVVDIPLTS [r1_161_JUSTAS]”, the results for the “folding stability dG unfold” value in series [1], in series [2] and in series [3] were 0.471 ± 0.09 kcal/mol, 0.527 ± 0.053 kcal/mol and 0.437 ± 0.061 kcal/mol, respectively.

Take “SGEPVIVKITFPDGTVLEIEFEGTPEEVKEAVEEEIKEYAKKHGLKPGEFKVEVIKAGDKTKETYTIKVESA [r9_1193_TrMRF]”: the “folding stability dG unfold” value in series [1] amounted to 2.03 ± 0.071 kcal/mol; in series [2], 1.87 ± 0.15 kcal/mol; in series [3], 1.5 ± 0.098 kcal/mol.

As to “SGFEVERVEVEADLDKPTVARFLLVNPDGQPIVALDPVVRLGEEALVLSVYRNPVDGELRVTARRIRLDGSA [r9_269_TrMRF]”, the “folding stability dG unfold” value in series [1] turned out to be 1.24 ± 0.11 kcal/mol; in series [2] it was 1.21 ± 0.043 kcal/mol; in series [3], 1.1 ± 0.068 kcal/mol.

As to “SGFTVEVEVEYYPETGVLEVTVTTDGSSEQLIRDVADFIKEAGLDFVIESVEVEESGEVTTITLKLYVPPSA [r9_164_TrMRF]”, the “folding stability dG unfold” value in series [1] turned out to be 4 ± 0.12 kcal/mol; in series [2], 3.78 ± 0.21 kcal/mol; in series [3], 3.03 ± 0.18 kcal/mol.

Take “SGGMVNATVTVTLPLPDLPPVTLTVTITEEATPEEAEARKKALAAELEAELRAAAADAALPAPALTSALLSA [r9_626_JUSTAS]”: the “folding stability dG unfold” value is 0.156 ± 0.43 kcal/mol in series [1], 1.24 ± 0.29 kcal/mol in series [2] and 1.85 ± 0.032 kcal/mol in series [3].

Turning to “SGKVVATVPLPDGTVITVEVSPDNTVRVTVVRYRLVPNSTAPAVEVRTYTFPLPPGNPPSIQDVLDRVLSSA [r9_614_TrMRF]”, the “folding stability dG unfold” value in series [1] was found to be 4.53 ± 0.053 kcal/mol; in series [2] it was 4.41 ± 0.098 kcal/mol; in series [3], 4.05 ± 0.14 kcal/mol.

Regarding “SGLKDVISVTVTQSPTAGEVPVVTAYSPDGSRTFNLAPEETEAFLKALREAGYNVVVTDRVFVPVPAELGSA [r9_607_JUSTAS]”, the “folding stability dG unfold” value in series [1] was 1.38 ± 0.052 kcal/mol; in series [2], 1.56 ± 0.052 kcal/mol; in series [3], 1.676 ± 0.016 kcal/mol.

As for “SGMDSNPKTTTENISFEEALKRLPSSVTSVEPRGESVVIKQSSPDSLTVVTMTRDPSSDSAPATTTTYLSSA [r9_604_JUSTAS]”, the “folding stability dG unfold” value in series [1] amounted to 0.181 ± 0.36 kcal/mol; in series [2], 0.341 ± 0.17 kcal/mol; in series [3], 0.304 ± 0.087 kcal/mol.

For the sequence “SGNGEVEVEINIRIVIEPWDPNGEPDPVPIAEIPIKAEYDANDPEAVDFAVLDILDLLAPENPGYRIHIESA [r9_1112_TrROS]”, the “folding stability dG unfold” value amounted to 0.379 ± 0.047 kcal/mol in series [1], 0.731 ± 0.062 kcal/mol in series [2] and 1.11 ± 0.067 kcal/mol in series [3].

As to “SGPGEEEVAKRAAAEAAPTPDVREVTEEVEIVVPGTGEKVVVPVTALRLPDGTIVPLPEEEIRAIAEKLLSA [r9_1056_JUSTAS]”, the “folding stability dG unfold” value in series [1] was 1.07 ± 0.058 kcal/mol; in series [2] it was 0.771 ± 0.13 kcal/mol; in series [3], 0.341 ± 0.098 kcal/mol.
